We go through 21 sequences from the DeepSol protein solubility set.

The data set in a line: soluble on expression in E. coli; label from the status in PepcDB or PDB records.
“MPEQAQTRRVFLFLQGPHGPFFHALGRMLRAAGAEVWRVGFNAGDRAFWFHPPSFIPYKGAHEDWPQAFADLLERKGVTDIVLYGDTRPIHASAVAAAKARGLGVHVFEEGYLRPYWVTYEREGSNGNSRLMDMTLEEMRAALALSDLETPLPPSHWGDMRQHIFYGALYHWFVMFTNQGYRRFKPHRDLPVTKEFQLYLQRLLLMPALAVERMLATARIRNGGFPYHLALLQLEHDSSFQQHSPFSTMTDFLEEIFDGFARGAPQHHHLVVKAHPLENGRVPLRREVRRLARQHGLEGRVHYVRGGKLAQLLNDARSAVTVNSTAGQQVLWRGIPLKVFGRAVYDKPEFVSTQTASEFFAAANRPDARAYKEYRRYLLETSQLPGGFYSRKGRRQLLRQVVDMMLSPDDPYDALKSGKAAPRQQLRLVN”: the “soluble on expression in E. coli” value is given as “not soluble”. To “MPFAIGQRWLSESENALGLGVITALDQRTVTIYFPAADETRIYAMAQAPLSRIVFSKGETLSHQAGWQGEILDVQNMNGLLFYLVKNPQDEDVIVQERDISPIISFSQAKDRLFSAQIDRSTHFALRY” belongs “not soluble”; to “MPGKLTATILTRNEAANIGDCIDSLAQLADEVIVLDSGSTDATRDIARARGANVIEDDGPWPGFGPQKNRALDRATGEWVLSIDADERVPPELAQEIRTAMARADADAYAIPRLSQFCGAWVHHSGWRPDHVIRLFRRGKARFSENLVHESLQVTGNVARLRTSLLHYSYTSMDQVHRKSAQYAEAGARDLTQRGKHIGALSPVLHGTWAFVRTLVLRRGFLDGGTGLAIARMNATVSYRKYRRARELASGANHRPLEHHHHHH”, “not soluble”. To “MPGTPIPMGRQTHRAHSASGFYTPHVSKLKTNYDREFQKFLRSAKTAIDHLDKIEMQILCPLKKKIKRFHKESNTLDVYFRSQTYWRSFYKELMNRSDDVMDCFRFEDLRDVAAVVESHRLPDVLVSFVTQQLMEWRELFKDVEWMRKFRELSHNMDSLKTKRIEHVLRQDIIREIGVAIDVHNLKIDDFRSHSNNTERVAEGIAHAIEESKNKQDAGNQLKHVPVLSKQMSVRRWYREHYGDPQALSDESDEESLSDGDNSSLFVGTADSSSRDASDISTEEVVTENEFDEFFN” belongs “not soluble”; to “MPHILNVTVPIPETHVLITKDEYDELIGYSLDPVWNMSDLKKKLKIASDETIKDRLLFHPRFEKELRAQGIVHYPDENFNRWRFNARKMNKFVDEHFNEIYKERIKLEHHHHHH”, “not soluble”; to “MPHPTHCRSANAVFRARMEFGLLEAPVSFSTLMDKRERGSFDSQFLIAMPGLDDGNFARSVIYICAHSDAGAMGFIINRPQQITFTDILLHLKLVDSNDAIMLPNRTREFPIQCGGPVESGRGFVLHSDDYLSESSIPVSDDISLTATLDIVRAISNGRGPQKATMMLGYAGWGPGQLENEIANNGWLNCPAAEELIFDRGLDNKYERALALMGVDARMLSTDAGHALEHHHHHH”, “soluble”. To “MPHSYPALSAEQKKELSDIALRIVAPGKGILAADESVGSMAKRLSQIGVENTEENRRLYRQVLFSADDRVKKCIGGVIFFHETLYQKDDNGVPFVRTIQDKGIVVGIKVDKGVVPLAGTDGETTTQGLDGLSERCAQYKKDGADFAKWRCVLKISERTPSALAILENANVLARYASICQQNGIVPIVEPEILPDGDHDLKRCQYVTEKVLAAVYKALSDHHVYLEGTLLKPNMVTPGHACPIKYTPEEIAMATVTALRRTVPPAVPGVTFLSGGQSEEEASFNLNAINRCPLPRPWALTFSYGRALQASALNAWRGQRDNAGAATEEFIKRAEVNGLAAQGKYEGSGEDGGAAAQSLYIANHAYL” belongs “soluble”; to “MPIEATMSTSNESANLLVPSFLPRGEVLGWNLTSVVNPVTRRKEYTYTVCVQTVGAFQCTEQAGVVLVKCDGPCGNKLPTNHLIALGKCDHMLCKACFGIVKNPDGSYGCSNFYCWSEPRGNFRKEKANYNKVINKQICRARKFKQDGEDLQACSKSNLPKTPADLSDREMNSAKSSESDTSSSDGSSYQSTVDSYGLPKRF”, “not soluble”. Consider “MPIKSKANEVPKEEAGVKKETPKVARKATKKDTPKELKDKENAGDDNTPKQTKGRPGRPAAKRKNLDTPDVTEKLAMEEENPPKRRSSRLTRSTRSMAEDGSPSPEKEKPEKLPFIKYKGAIKYFTESQDIAASADDVLQWVEKQKDEVVPMAFDMEWPFSFQTGPGKSAVIQICVDEKCCYIYQLTNVKKLPAALVALINHPKVRLHGVNIKNDFRKLARDFPEVTAEPLIEKCVDLGLWCNEVCETGGRWSLERLTNFIAKKAMDKSKKVRMSKWHVIPLDENQLMYAAIDVYIGQVIYRELERREKVKIKNEEEFKEKNGDAAFKAMKALGETFLTKINEVTLLEHHHHHH”, for which the “soluble on expression in E. coli” value was “soluble”. To “MPILQELRLGKRISRDISLADLYQEWIELKILPSSRSEETKKKYLLRKNTIERLFGNKKVTQIRASEYQRIMNKYGQTVGRNFLGRLNTGIHQSIQMAIADKVLIDDFTQHVELFSSKLEHHHHHH” belongs “soluble”; to “MPIRSNPFFNMDSSALLSLLRHTGTSMDSKSSKKSSGSIGGGVLKMFKLIPMLSSGCKMVNLLSRGHRRPLLKDYATTGTIFGFRKGRVFLAIQEDPHCLPIFIIELPMLTSALQKEMASETVRIALESETKTSRKKVLEEYVWGIYCNGRKIGYSIRRKNMSEEEMYVIDALRGVSMGAGVLPCKNQYDQETEGEMTYMRARFDRVIGSKDSEALYMINPEGSGQGTELSIYFLRSH”, “soluble”; to “MPKAVAVLFFLLFTSLSYAESAFDIVQKSDQAMRGKSSYSEATMEIVRPDWTRSMTMKSWTKGTELSLVLVTAPAKDKGSASLKRHREMWNWVPSIERVIKIAPSMLSQSWMGSDFTNDDLINQSSIVVDYQHALLGNDSFEGDKVWVIEATAKPDAPVVWNKVTLWISQSTYLQRKVEFYDEFDERVNVLTTYDVKELGGRKIATRMEMKPVDKPGNKTIFTTHQAQFDFDINDDFFSQQQMKSLRD”, “not soluble”. Consider “MPKIAKSDRLENVAFEYIKNKITTGEYPTGYRVVEAKLSQELNMSRTPIRRAIINLCHSGFLVHQYNRGAFVQNTEVTITEFFSRMKLVELLVYESTEKLALREDYIVVDDIIEIAEKVIQYEKNREYELMRGAFEDFISTFIGKLNNDYFNRVIQDLWNEINDNATKEVRLIIVSASDRIAEELAHMIEILKSWNYEQLKKCFQHIMNAMILIAF”, for which the “soluble on expression in E. coli” value is “not soluble”.

Turning to “MPKIYTKTGDKGFSSTFTGERRPKDDQVFEAVGTTDELSSAIGFALELVTEKGHTFAEELQKIQCTLQDVGSALATPCSSAREAHLKYTTFKAGPILELEQWIDKYTSQLPPLTAFILPSGGKISSALHFCRAVCRRAERRVVPLVQMGETDANVAKFLNRLSDYLFTLARYAAMKEGNQEKIYMKNDPSAESEGL”, the “soluble on expression in E. coli” value is recorded as “soluble”. Consider “MPKRAVSFADDIETRVFKRDKREIEDGILDIPMEEDVVKERPGNADEDEEEKKKFHTLESDEEEEEDHKRLDTRRVEGQEDCGVDFDGSIKITAFNMKEDEEEGHFDETGNFIFDKKTKDVQDAWLDGIDWSLVKKKAGDQWEGDEDKKSLEDEEPEPITMSDARKKEIFEQLVNLLKPNQTVAKALSELKKKKGLSAAEERKLRWAAKKAGKSFEPTDGQKETSQLSGLADELISAGIMDAYEWHREKFNFQLQKMISTAADELDMFSDEPTSTGAARAAGAPMEQEEEEADDSVKWEYKANEEAKIEVEYEKTDDFGEIRVNKIGPIPTSEMMDRQSKGLLSAEGVARRSGTNGHFNPVARIDFELYL”, for which the “soluble on expression in E. coli” value is recorded as “soluble”.

For “MPKRGLDVSSCEIFRFYKLITTKSLIEPVSMIVPRRSESYQEDIYPPTAAAQPSLTAHEWLSGMNRGKGGWEQAARLGNWSPGGPK”, the “soluble on expression in E. coli” value is recorded as “not soluble”. As for “MPKRKLKTPESTETTKICKKNDNFSDFWSEKLDEIGSAHLADTKSRTKSAVKHELTGIGSSSIYKGTRDLQLPKSEDLSNFGWNEGVLEHLQVLLEEIEVDEKKEEQIEAERGAILKFTAEYRDLLAITGDQGGYRSIYCAHIIQHLIRNKNLIIGNKRKLEIASTQEGGADEETIESCRDSGFVRPVVLVLCAFKKDAYDIINRLRRILHGDDEGKSEVWNKNRFEEEYSGPTELPTTRADFPDDHKELLLGNNDDAFRIGLAISKKVLKLYEKFEKADILVCSPLGLRMILNGDDGNEAHLISSINMTIVDRTDIMLQQNWENLQLIFSHLHSQPSKIDVDISRVRKLYLDGQSRHFSQLLMFSRYSHELFTSLMLQNSQNHRGLVIAKPKQSGTLSNIEIPLCQELHKFEVKDPNETSDLRFKYFVDKIMPSLIPRTLIVIPSYFDFVRVRNHLKKAEESFVMCHEYATRAKVDRAREMFFHERKSYLVVTERWYFFNRRHLTGVHRVVFYQLPSHPLFYSEFINMSDAETSQRFLAVLLLCKYDRIRLENTFGTEMAAAVMSNKQAVQAIVSQ”, the entry is “not soluble”. As for “MPKRRLQTTLSEEAFRIIEKFKPDYGGINEVIEAALKLLNREDRNLSEDDILLIRLIRDLDFTGCGRSQYMHLICGDIEKAVKESMMETAVEWFLKKPFAEIELEEFLETVKRGWKVLNRVDYVEITKGDGWIQIFCEHTMRRREVSEFLAMHILNIYEKYYKGEWDVVKSISTNGFTLKFYRRV”, the entry is “not soluble”; as for “MPKVGMPEIRKPQLVKATMSVIDRVGLHAASISLISKEAGVSTGIINHYFGGKHGLLEETMREILRQLSSTITGKLRALPADAHHQRINAIIDGNFVGYQAENKVAKTWLAFWSYSMHDEQLKRLQRVNERRLLSHLRRELKALLSAEQAELVAHGIASLIDGIWLRGTLNPQGIEADKARIIINDYLDKQLTFYSHKI”, “not soluble”; as for “MPLEASELKPTAGPLEASELKPTAGPLEASELKPTAGPLEASELKPTAGPLEASELKPTAGPLEASELKPTAGPLEASELKPTAGMIVVYVFVYAFKAVKQYFYPSDNLKVLMHKFTDMVNFTINIMIEKNLTSRNSVSNEVYHKLKEYEIPSYYYIEAINKAVALVKTYRKRLKKKQKATVPHVEKPMLSTYYGFKIVGGNIMIPIANREYESIPLNAYVRDATSMVKVHSFALSAYTLSLTIGRDVDAIECTTTVGVDRNLRNITVGNEFHHEIYDLSNIVEIKQRYRKKESHFHRNDRRIREKILSKYGKRERNRVKQIMHETSKAIVSNASTKKEMIVLENIIGINQITKKGDGKGKDYRFLLKNAFPYGMLASQVMYKASWEGLPVIELTRKETRNTSRMCSVCGSLTRIEHGRILKCDSCGLEIDRDVNACINIAFRYRTCLKRSHKGLPGEAVKQSKDVEQMAGSQISMDILEHHHHHH”, “not soluble”. As to “MPLELWIVFNLFGRKSPRSNIKPARGPGETVREADLRYLQEWVSTHAVVEAFVEPETIVNEMSVVLVDITGEFTRRRIGGPKGIDVISSTLGVPVYDVEETGYPQRMREKIERDRILRKREEQRERREKLQRERGESQ”, the “soluble on expression in E. coli” value is recorded as “not soluble”.
